Residue numbers refer to the chain shown, from its start. Numbers in names are those of the source.
B1: TaHPPD6-02: native HPPD of Triticum aestivum ecotype 6, UniProt A0A3B5YPS5, SEQ ID NO: 207 (protein, listed as Triticum aestivum)
chain: MVRFNPGSDRFHTLAFHHIEFWCTDAASADGRFAFSLGAPLAARSDLSTGNSTHASQLLRPGSLAFLFTAPYANGCIFSVDAARRFFADHGLAVRSVALRVADAAKAFRASVDGGARPAFAPVDLGRGFGFAEVKLYGDVVLRFVSHPDGTDVPFLPGLFEGVSNPGAVHYGLTRFDHIVGNVPELAPAAAYVAGLTGFHEFAEFTTEDVGTAQSGLNSVVLANTSEGVPLLLNEPVHGTKRRRQIQTFLEHHGGPGVQHIAVASSEVFRTLREMHARSSMGGFDFLPPPLPKYYEGVRRLAGDVLSEAQIKECQELGVLVNRDDQGVLLQIFTKPVGDRPTFFLEMIQRIGCMEKDERGEEYQKGGCGGFGKGNISELFKSIEDYEKSLEAKQSAAVQGSYI
modifications: TaHPPD6 Amino Acid Sequence
B2: TaHPPD6m-F372A-02: Triticum aestivum ecotype 6 HPPD mutant F372A, SEQ ID NO: 210 (protein)
chain: B1 chain with F333A
modifications: TaHPPD6m-F372A Amino Acid Sequence
B3: TaHPPD7-02: native HPPD of Triticum aestivum ecotype 7, UniProt A7WK82, SEQ ID NO: 213 (protein, listed as Triticum aestivum)
chain: MPPTPTTPAATGAAAAAAVTPEHARPRRMVRFNPRSDRFHTLAFHHVEFWCADAASAAGRFAFALGAPLAARSDLSTGNSVHASQLLRSGNLAFLFTAPYANGCDAATASLPSFSADAARRFSADHGLAVRSIALRVADAAEAFRASVDGGARPAFSPVDLGRGFGFAEVELYGDVVLRFVSHPDGTDVPFLPGFEGVSNPDAVDYGLTRFDHVVGNVPELAPAAAYVAGFTGFHEFAEFTTEDVGTAESGLNSMVLANNSEGVLLPLNEPVHGTKRRSQIQTFLEHHGGPGVQHIAVASSDVLRTLREMRARSAMGGFDFLPPPLPKYYEGVRRIAGDVLSEAQIKECQELGVLVDRDDQGVLLQIFTKPVGDRPTCSWR
modifications: TaHPPD7 Amino Acid Sequence

Test system: Arabidopsis thaliana T1 plants
Assay: Topramezone tolerance of transgenic Arabidopsis thaliana T1 plants (pesticide damage grade by bleached leaf area, score, resistance evaluation)
Type: in vivo
Conditions: HPPDs from ecotypes of Triticum aestivum; for Classification and statistics of pesticide damage grade: Grade 0 / Classification and statistics of pesticide damage grade: Grade 1 / Classification and statistics of pesticide damage grade: Grade 2 / Classification and statistics of pesticide damage grade: Grade 3: number of plants
How it was run: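 Eighteen days after sowing, wild-type and HPPD-transgenic T1 Arabidopsis receive a topramezone spray at 1×, 2× or 4× field rate (25–100 g ai/ha) or water. Seven days later each plant is graded by its proportion of bleached leaf area.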

| Molecule | Resistance evaluation (topramezone 25 g ai/ha (1x)) | Scores (topramezone 25 g ai/ha (1x)) | Classification and statistics of pesticide damage grade: Grade 0 (topramezone 25 g ai/ha (1x)) | Classification and statistics of pesticide damage grade: Grade 1 (topramezone 25 g ai/ha (1x)) | Classification and statistics of pesticide damage grade: Grade 2 (topramezone 25 g ai/ha (1x)) | Classification and statistics of pesticide damage grade: Grade 3 (topramezone 25 g ai/ha (1x)) | Resistance evaluation (topramezone 100 g ai/ha (4x)) | Scores (topramezone 100 g ai/ha (4x)) | Classification and statistics of pesticide damage grade: Grade 0 (topramezone 100 g ai/ha (4x)) | Classification and statistics of pesticide damage grade: Grade 1 (topramezone 100 g ai/ha (4x)) | Classification and statistics of pesticide damage grade: Grade 2 (topramezone 100 g ai/ha (4x)) | Classification and statistics of pesticide damage grade: Grade 3 (topramezone 100 g ai/ha (4x)) |
| --- | --- | --- | --- | --- | --- | --- | --- | --- | --- | --- | --- | --- |
| B1 | non-resistant (non-resistant plants (scores 68-100)) | 88 | 0 | 0 | 6 | 10 | non-resistant (non-resistant plants (scores 68-100)) | 96 | 0 | 0 | 2 | 14 |
| B2 | highly resistant (highly resistant plants (scores 0-15)) | 0 | 16 | 0 | 0 | 0 | highly resistant (highly resistant plants (scores 0-15)) | 2 | 15 | 1 | 0 | 0 |
| B3 | non-resistant (non-resistant plants (scores 68-100)) | 100 | 0 | 0 | 0 | 16 | non-resistant (non-resistant plants (scores 68-100)) | 100 | 0 | 0 | 0 | 16 |

Reference: US20230212587A1, “Mutant Hydroxyphenylpyruvate Dioxygenase Polypeptide, Encoding Gene Thereof and Use Therefor” (Beijing Dabeinong Biotechnology Co., Ltd., priority 2019, published 2023)
